Experimental data from paper PMC1974823.

Biological target: T1, rFimR (Porphyromonas gingivalis (ATCC 33277?)) (UniProt B2RJ77)
T1 sequence: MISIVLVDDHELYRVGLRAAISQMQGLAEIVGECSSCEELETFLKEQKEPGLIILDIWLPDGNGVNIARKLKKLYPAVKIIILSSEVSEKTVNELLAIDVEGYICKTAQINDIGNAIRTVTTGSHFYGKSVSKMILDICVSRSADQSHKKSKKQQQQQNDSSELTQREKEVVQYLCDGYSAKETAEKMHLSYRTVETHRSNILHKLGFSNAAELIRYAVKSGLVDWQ
Test: EMSA

## TGTAACGGGTTCTGCCTCGTTGTCTTTGTTACAAGCTGTCATAGCAAGAGCAGCAAGTCCCAACAAGAAAAACTTTGTTTTTTTCATCTCGTTTTTGTTTTAAAAGTGAATATTGTTTTCTAAAAATCTAATCTTTTCCCATTTAGAGATTGTCTTGCATATAGCGTCG (double strand) [fimA promoter (176 bp)]
  binding: no binding

## CAGATGGGTTGTTGCTCAAGGAGAACGTCGCCAATACCTAAGCAAGAAAAGAGGAACTGTTCCAGAAAATACTTGGGTTACTCCGGGTTCTGGTTTCGTTCCTACCAGCAGCACTTTCTAT (double strand) [mfa1 coding region (121 bp)]
  binding: no binding
